Measurements reported in doi:10.1101/2024.09.25.614871v2.

Key:
[1] = substrate: C=C(CC(=O)O)C(=O)O; assay: PK/LDH-coupled NADH consumption; assay type: biochemical, Homo sapiens; conditions: 0.1 mM CoA, 7 mM MgCl2, pH 7.5, 30 °C
[2] = substrate: O=C(O)C[C@H](O)C(=O)O; assay: PK/LDH-coupled NADH consumption; assay type: biochemical, Homo sapiens; conditions: 0.1 mM CoA, 7 mM MgCl2, pH 7.5, 30 °C
[3] = substrate: CC(C)(COP(=O)(O)OP(=O)(O)OC[C@H]1O[C@@H](n2cnc3c(N)ncnc32)[C@H](O)[C@@H]1OP(=O)(O)O)[C@@H](O)C(=O)NCCC(=O)NCCSC(=O)C[C@H](O)C(=O)O; assay: purified protein; assay type: biochemical, Sus scrofa; conditions: pH 7.5, 37 °C, 100 mM Tris

B1: SUCL (ADP-forming), SUCLG1:SUCLA2 complex (Homo sapiens) (protein)
chain 1: not shown
chain 2: LSLHEYMSMELLQEAGVSVPKGYVAKSPDEAYAIAKKLGSKDVVIKAQVLAGGRGKGTFESGLKGGVKIVFSPEEAKAVSSQMIGKKLFTKQTGEKGRICNQVLVCERKYPRREYYFAITMERSFQGPVLIGSSHGGVNIEDVAAESPEAIIKEPIDIEEGIKKEQALQLAQKMGFPPNIVESAAENMVKLYSLFLKYDATMIEINPMVEDSDGAVLCMDAKINFDSNSAYRQKKIFDLQDWTQEDERDKDAAKANLNYIGLDGNIGCLVNGAGLAMATMDIIKLHGGTPANFLDVGGGATVHQVTEAFKLITSDKKVLAILVNIFGGIMRCDVIAQGIVMAVKDLEIKIPVVVRLQGTRVDDAKALIADSGLKILACDDLDEAARMVVKLSEIVTLAKQAHVDVKFQLPI
Protein B1 has a Km ([1]; 0.6 mM ATP) of 19.1 ± 2.5 mM, a kcat ([1]; 0.6 mM ATP) of 0.65 ± 0.08 s⁻¹ and a Km ([2]; 0.6 mM ATP) of 21.9 ± 5.8 mM. It also gave a kcat ([2]; 0.6 mM ATP) of 0.06 ± 0.01 s⁻¹.

B2: SUCL (GDP-forming), SUCLG1:SUCLG2 complex (Homo sapiens) (protein)
chain 1: not shown
chain 2: LNLQEYQSKKLMSDNGVRVQRFFVADTANEALEAAKRLNAKEIVLKAQILAGGRGKGVFNSGLKGGVHLTKDPNVVGQLAKQMIGYNLATKQTPKEGVKVNKVMVAEALDISRETYLAILMDRSCNGPVLVGSPQGGVDIEEVAASNPELIFKEQIDIFEGIKDSQAQRMAENLGFVGPLKSQAADQITKLYNLFLKIDATQVEVNPFGETPEGQVVCFDAKINFDDNAEFRQKDIFAMDDKSENEPIENEAAKYDLKYIGLDGNIACFVNGAGLAMATCDIIFLNGGKPANFLDLGGGVKEAQVYQAFKLLTADPKVEAILVNIFGGIVNCAIIANGITKACRELELKVPLVVRLEGTNVQEAQKILNNSGLPITSAIDLED
Work on B2 yielded a Km ([1]; 0.6 mM GTP) of 1.5 ± 0.2 mM, a kcat ([1]; 0.6 mM GTP) of 5.3 ± 0.2 s⁻¹ and a Km ([2]; 0.6 mM GTP) of 1.9 ± 0.3 mM. The kcat ([2]; 0.6 mM GTP) was 0.18 ± 0.02 s⁻¹.

B3: citrate synthase (CS) (Sus scrofa) (protein)
chain: ASSTNLKDILADLIPKEQARIKTFRQQHGNTVVGQITVDMMYGGMRGMKGLVYETSVLDPDEGIRFRGYSIPECQKMLPKAKGGEEPLPEGLFWLLVTGQIPTEEQVSWLSKEWAKRAALPSHVVTMLDNFPTNLHPMSQLSAAITALNSESNFARAYAEGIHRTKYWELIYEDCMDLIAKLPCVAAKIYRNLYREGSSIGAIDSKLDWSHNFTNMLGYTDAQFTELMRLYLTIHSDHEGGNVSAHTSHLVGSALSDPYLSFAAAMNGLAGPLHGLANQEVLVWLTQLQKEVGKDVSDEKLRDYIWNTLNSGRVVPGYGHAVLRKTDPRYTCQREFALKHLPHDPMFKLVAQLYKIVPNVLLEQGKAKNPWPNVDAHSGVLLQYYGMTEMNYYTVLFGVSRALGVLAQLIWSRALGFPLERPKSMSTDGLIKLVDSK
B3 showed a Km [3] of 0.106 mM.
